Experimental data: the DeepSol protein solubility set

Assay: soluble on expression in E. coli; label from the status in PepcDB or PDB records

Row | Sequence | soluble on expression in E. coli
1 | MSIVMQLQDVAESTRLGPLSGEVRAGEILHLVGPNGAGKSTLLARMAGMTSGKGSIQFAGQPLEAWSATKLALHRAYLSQQQTPPFATPVWHYLTLHQHDKTRTELLNDVAGALALDDKLGRSTNQLSGGEWQRVRLAAVVLQITPQANPAGQLLLLDEPMNSLDVAQQSALDKILSALSQQGLAIVMSSHDLNHTLRHAHRAWLLKGGKMLASGRREEVLTPPNLAQAYGMNFRRLDIEGHRMLISTI | soluble
2 | MSLSMLAVAATALATFAIAPAQAQAEKPKDKVTLMLNWYLYSEHATFFLGKEKGFYAEEGIDLGIQEGRGSAVTAQAVAAKSATFGYIDVTTMIKAAAKGAPLKSTGVLFQVSPMSVMGLSEKNIATPKDIIGKTVAVTPGDSMSQMWPLFLKVNDIRPDQVKVVSGDGQTKLNAVANGQADLLLGYVMDQAIKLQDATGKPVTPIRFADSGVNQISSGIITHKNLLTENPDLVKRFMRASTKAAEAAEKSPEAAVDAMLKAHPKAGVRDTLIVGMKQSVALYHTQETANQRPFRVAMKNVNDSLDLLEGHHHHHH | not soluble
3 | MGHNMMTTQKWYEHITNVIIGNTANFNSGCPESIDYVDEKKGVPLAAMKYILMYTEAAASHAYLFEHDLKKFKQYAYVAGKLGILQSVDDEDPEPFFFPCDMLNIQDPMFLMLMSDSPQLREFLVRNIDNIANDTEAFVNRYDLNRHMIYNTLLMVEGKQLDRLKQRSEKVLAHPTPSKWLQKRLYDYRFFLAFAEQDAEAMKAALEPLFDKKTARMAAKETLSYFDFYLQPQIVTYAKIASMHGFDLGIDHEIAPRDLTVYDPLPADEYQDIFDFMKQYDLSYPYEYLQDWIDYYTFKTDKLVFGNAKRE | not soluble
4 | MGSDKIHHHHHHMNFAMTPEEAKTNEAYCRALIELLYQLADDDYIVAYRGSEWLGLAPHIEEDVAFSSITQNTMGHAVMFYELLEQLGEGDADTLAHERDPALRRNSVYLEKKNGSGTYLDEPHYDWALTVIRHFFYETFKKIRLEALTQSSYVPLAKAAQRVLMEQPYHLAHWKTWLCQLQQSTEEAKNRLMERIDEAWLEILDMLELGLKGGEMVEYQLITDEATIQQQWVKEMNKSLFYVPSQSLQKQEGNGRNGEHTDDLQQALSTCSEVYNSDRHAVW | not soluble
5 | MSLDVSYSFTPLTGYKDSLVNQHVKLPLNYPTIDNHNPKKSTTPNNEFHKKIATTGKIINLPKQSIVPAVSISVYNDMKTIVLTPMEFQLSSIGFQFQNLIIDLPHSTISTNCITFYYHQDHILIDLIDQNYLFITLKIAIDRFILGGQQLTLDNFEEWGYISVPYSFELRSSPFLLKCLDNLNLIVSLKDGGLLHFKRDEELGEINVFNFQEQGTLIPFLGFFGSGKQKDVVLDGVSSNSIVDALQIGGSGVVITLSVNKVLKLWNLDGHQNLSSLTIASDDNTWLPTIPSKYLKSYDQEDGKTIITLFINTKSGDSSKSMFVFKSFELESSNLHDLSDLSFQPELPNSLLFSSDVFYHESNFQNTIWFIQDYEVVGFGTSQLKYYILWKSNTSSILVEYTINPVNGAILSIEISHPNGFEIDENISAYHDAEYYMDRIFDSGNYDSLIVLTSIKILSQHWEIDNEGHHHHHH | soluble
6 | MNREKLMKMANTVRTGGKGTVRRKKKAVHKTTTTDDKRLQSTLKRVGVNSIPAIEEVNIFKDDVVIQFINPKVQASIAANTWVVSGTPQTKKLQDILPQIISQLGPDNLDNLKKLAEQFQKQAPGAGDVPATIQEEDDDDDVPDLVVGETFETPATEEAPKAAAS | soluble
7 | MRLLTWDVKDTLLRLRHPLGEAYATKARAHGLEVEPSALEQGFRQAYRAQSHSFPNYGLSHGLTSRQWWLDVVLQTFHLAGVQDAQAVAPIAEQLYKDFSHPCTWQVLDGAEDTLRECRTRGLRLAVISNFDRRLEGILGGLGLREHFDFVLTSEAAGWPKPDPRIFQEALRLAHMEPVVAAHVGDNYLCDYQGPRAVGMHSFLVVGPQALDPVVRDSVPKEHILPSLAHLLPALDCLEGSAENLYFQSHHHHHHDYKDDDDK | soluble
8 | MSLYFSGEPAQIAEIKRLASGAVTPLYRRATNEGIQLFLAGSAGLLQTTEDVRFEPCPGLTAAGRGVVSPENIAFTRWLTHLQDGVLLDEQNCLMLHELWLQSGTGRRRWEELPDDARESITALFTPKRGDWCDIWSNEDVSVWWNRLCDNVLPEKTMPFDLLTVLSTRLDVEVNGFNGGVLNGVPSAYHWYTEQYGVKWPCGYEVNISSQGDNFIQVDFDTPWCQPESDVIAVLSRRFSCMLEHWYAGQGCNFCGWQRYERGELVDVLWGELEWSSPTDDDELPEVTAPEWIVDKVAHYGGEGHHHHHH | not soluble
9 | MGSDKIHHHHHHMWSLMHPYLPATVRKWTNLNLSNHSFSLNTMKTKRLSEFFPGVRSYYIVGEIAIITPKRVNVDYNLVAEKIMQAHPKIKAVYLKKKVKGELRTNELEFLSGERISSTIYKENGVLFYVDINKVYVNPSLSGDRLKNLELVEEGSTVLDAFTGYGAIALNIAHKKRVYVVAGDINIDGLYMLKKSLSLNKIKGMIDIVQYDAHHLPFRDKVFKLSFGDNPTLIIDFKEELCRVSENVVFYILCESEDKANSSLGRTSWIKINDYSKNLFIFKGLVRC | not soluble
10 | MSEQTVQVKTTGKILQSPCGPIIHGLEDVLIKSTSISDIDGEKGILWYRGYRIEELARLSTYEEVSYLILYGRLPTKRELEDYINRMKKYRELHPATVEVIRNLAKAHPMFALEAAVAAEGAYDEDNQKLIEALSVGRYKAEEKELAYRIAEKLVAKMPTIVAYHYRFSRGLEVVRPRDDLGHAANFLYMMFGREPDPLASRGIDLYLILHADHEVPASTFAAHVVASTLSDLYSSVAAAIAALKGPLHGGANEMAVRNYLEIGTPAKAKEIVEAATKPGGPKLMGVGHRVYKAYDPRAKIFKEFSRDYVAKFGDPQNLFAIASAIEQEVLSHPYFQQRKLYPNVDFWSGIAFYYMGIPYEYFTPIFAMSRVVGWVAHVLEYWENNRIFRPRACYIGPHDLQYIPLEQR | soluble
11 | MQRARCYLLGETAVVLELEPPITLASQKRIWRLTQRLVDMPNVVEAIPGMNNITVILREPQTLALDAIERLQRWWEESEALEPDSRSVEIPVIYGGAGGPDLAAVARHSGLSEKQVVELHASVEYVVWFLGFQPGFPYLGNLPEPLHMPRRAEPRLQVPAGSVGIGGAQTGIYPLSTPGGWQLIGLTPLKLFDPMRETPVLLRPGDSVRFVPQKEGICMAGDPLEHHHHHH | not soluble
12 | ANQLRELKQTHTYTVFGYTDGGFAVISADDLAPELLGVSESNFVETDNPSFKWWLKAIDEVITNAVKSNKPLNVIKPDPSKYAAEVSTLLTTTWGQQMPYNKLLPKTKKGRLITGAVATATAQVLNYFKYPVRGIGSHTVHYPANDPSGVAISADFGNTTYDWANMKDNYSGNYTEAEANAVATLMLHCGVASEMQYGGPNEGSGAYMTDCAAGLRTYFGFTDAEYITRANYTDEQWMDIVFSELTKGHPLIYGGVSPGSMGQDAGHAFVIDGYNKAGLVSVNWGWNGDVDGYYKIDLLNPGNMYSFTAEQDMVRGVYGKP | soluble
13 | MAHHHHHHMDLFNCQYCSISPFDYILDYLYGDTSSKKEEKKKKSNITYDDSSSNNVSQVVSKIDEEIEKRTTNEILLLCRAWENYVHPRAKEYWKDSQQLQNILCKIANGITKNDDPILGDDYACVFWYGDKNKNDNCPIISVKKGNDNIETITYVNRVLIFLYADEASFQELQKKPKKAFTMACGNTNCINLTHISLDD | not soluble
14 | MKPIDEFLYVKQNYLTSDTNSLMRLYFPIIGSDAAGLYQYFVSFFDNGEKKHKFSEILNHTQFGMACFENALSVLTAMDLLVFYRQENLYYIKLKAPLNAETFLKNAVYRHLLEQKIGQVAVEHLDLHLPREAQDLSKQFSEVFTAAGQLDLKTPKSKTDFDLDHFKDLMIRDNLQFTDEQTDVIALYILSEKYQLTWYETYLLAKETASNYRISLKRMQAKQEQRDHVDADNSFSKKEQIIIEEAKADKVEVFLAKIKKTRHAAITKDERSLLAELAEMGFLDEVINIMLLYTLDKTNTANINKTYIMKIANDFAFQKIDSAEKAVLKLRSFAERKTKQNQKKIKESSKNNVPEWSNQDYQNNTTADEQARLDEIKRKTLAR | not soluble
15 | MVYVKSLLRRADNFMYIVKKSSEARAALLVDLVNEEDYKELADKENIDITAVLTTHHHYDHCGGNEGFRRQFPNVMILGGDSRIPAMDRHVKHGDMAEFAGLQIKCLSTPCHTSGHICYHITNPAADSTSPGVVFTGDTLFIAGCGRFFEGTAPQMDVALNEILKNLPVETQIFPGHEYTVANLKFACHVEPGNEKAAQKLEWAQRQIEQGGFTVPSTVAEEKATNPFMRVRESEEIQKSIGTCDAVVGMAKLREMKNKF | not soluble
16 | MGSDKIHHHHHHMHPKNAWYVACTADEVADKPLGRQICNEKMVFYRDQNQQVVAVEDFCPHRGAPLSLGYVENGQLVCGYHGLVMGGDGKTASMPGQRVRGFPCNKTFAAIERYGFIWVWPGEREKADPALIHHLEWAVSDEWAYGGGLFHIQCDYRLMIDNLMDLTHETYVHASSIGQKEIDEAPPVTTVEGEEVITARHMENIMPPPFWKMALRGNNLADDVPVDRWQICRFTPPSHVLIEVGVAHAGKGGYHAPHEFKASSIVVDFITPETDTSIWYFWGMARNFKPADEQLTATIREGQHKIFSEDLEMLERQQLNLLQHPHRNLLKLNIDAGGVQSRKILERLIAAEQADTADQIPVAAVK | not soluble
17 | MSLLLIKNGKIITMTGKNYDKGCVLIDNGKIVDVNENIKENKYMKVIDASNFTVIPGIIDAHCHIGIDEQDIGKVGLDINEVSNPVTPNLRAIDAINPMDSAFNDAVMGGITGVMTGPGSANVIGGQFVFMKTYGKCIDDMVVLEPAAVKAALGENPKRVYGGKGKAPVTRMAIAALLREALTEAENYKNKKEALKAKGERIEKNLKLEALIPVIEGNIPLKVHAHRADDILTAIRIAKEFKINITLDHCTEGHLIPEKVKESGYPVLVGPSLTSRSKSEVSNKTFKTPGVLANMGIKTAIITDHPVIPIQYLPICAGLSCREGMKVEDALYAITLNAAEICGVASRLGSIEKGKDADIAIFDGNPMEVFTKTIYTIIDGNIVYKHECYEGHHHHHH | soluble
18 | MSLDTHSLRFSKEGTFQITVFSDLHFAEYENTAQGAKQDSRTAGVVRKVLQHEASTQLVVLNGDLISGYGTTSDNATRYLDQVLAPIQALGLPWAVTYGNHDNERFARSRELLDYESRTYPNYSLTRNMGPRDLEAGVSNYYLEVFAAETSHVPEMLLWFFDSRGGAQPHDWVHDSVVQWFIDTNANLTNKYNKAVPSIAFFHIPITATYDFQLYPGVDTSREPGINGEKVWWQGRGYDGKTGHDLKFMAALSATEGMLATFSGHDHDNDWCFKWKSPSATSSSAGLNVCYGRHTGYGGYGGLARGARQILLKQSTIKDEVATWIRLEDGLVPENVTLNATYGQDEEGHHHHHH | not soluble
19 | MKAIILAGGQSERFGEPKAFAQINAQPFYKRIIDVLEGTNMFNQIIISTNETLASQFDHSDIIIDEDQNKDKGPLAGIQSVIQHYESEELFFVVSVDTPMISQKAVSKLYQFMVEHLIEDQLDIAGFKEKGRPIPTIAFYSPHTLPYIDDALNSNDYSLKSVYNKVKSDWLDVNLIESPDYWYKNINYQQDLDSLQQDILNR | not soluble
20 | GAQVSTQKTGAHESIIHYTNINYYKDAASNSANRQDFTQDPGKFTEPVKDIMVKSLPALN | soluble
